# Data published in article PMC3702667 (Nature structural & molecular biology, 2013).
# B1: GST–tagged Rpb1_(1168–1302) (domain or fragment)
# chain: not shown
# B2: RECQL5 IRI domain (residues 490–620) (domain or fragment)
# chain: GSGDEGRDEAHKREWNLFYQKQMQLRKGKDPKIEEFVPPDENCPLKEASSRRIPRLTVKAREHCLRLLEEALSSNRQSTRTADEADLRAKAVELEHETFRNAKVANLYKASVLKKVADIHRASKDGQPYDM
# B3: untagged recombinant Rpb1_(1168–1302) (domain or fragment)
# chain: not shown
# B4: GST–RECQL5_(490–620) (domain or fragment)
# chain: B2 chain
# Assays:
# Test in all cases: pull-down
# RECQL5_(1–620) = RECQL5_(1–620) (human, UniProt O94762 1-620)
# [1] = molecular target: B1
# GST–fused RECQL5_(1–620) = GST–fused RECQL5_(1–620) (human, UniProt O94762 1-620)
# [2] = molecular target: B3
binder,measurement,setting,value
B1,binding result,RECQL5_(1–620),binds
B2,binding result,[1],binds
B3,binding result,GST–fused RECQL5_(1–620),binds
B4,binding result,[2],binds
